# In US20210277109A1 (SYSTIMMUNE, published 2021):
# Experiments:
# [1] = target: T1, human ROR1 'Frizzled-Kringle domain' (human, UniProt Q01973); test: ELISA, biotinylated antigen on avidin plate; BCC supernatant
# T1 construct: used plain or biotinylated
# [2] = target: T2, human ROR1 'Ig-Frizzled domain' (human, UniProt Q01973); test: as above
# T2 construct: used plain or biotinylated
# [3] = target: Human ROR1-CHO cells (human) (UniProt Q01973); test: FACS; BCC supernatant
# Human ROR2 (human) = Human ROR2 (human) (UniProt Q01974); test: ELISA, direct coat; BCC supernatant
# [4] = target: T1, human ROR1 'Frizzled-Kringle domain'; test: ELISA, direct coat; BCC supernatant
# [5] = target: T3, recombinant human ROR1 extracellular domain protein (human, UniProt Q01973 30-406); test: ELISA, direct coat; BCC supernatant
# T3 construct: extracellular domain; Analyte in solution in the Octet assay; also called human ROR1 ECD
# [6] = target: T4, mouse ROR1 (serum titer ELISA antigen) (mouse, UniProt Q9Z139 30-403, limits assumed); test: ELISA, direct coat; BCC supernatant
# [7] = target: T2, human ROR1 'Ig-Frizzled domain'; test: ELISA, direct coat; BCC supernatant
# [8] = target: recombinant human ROR1 extracellular domain protein (human) (UniProt Q01973); test: ELISA, direct coat; BCC supernatant
# [9] = target: T5, human ROR1 'Kringle domain' (human, UniProt Q01973, biotinylated); test: ELISA, biotinylated antigen on avidin plate; BCC supernatant
# T5 construct: also called biotinylated human ROR1 Kringle domain
# Human ROR2 [10] = target: T6, Human ROR2 (human, UniProt Q01974); test: ELISA, direct coat; BCC supernatant
# [11] = target: T3, recombinant human ROR1 extracellular …; test: Octet, mono-valent binding to human ROR1
# Source text: The heavy and light chain expression plasmids generated from each well were transiently co-transfected to produce rabbit/human chimeric antibodies. Recombinant antibody supernatants were confirmed to contain anti-ROR1 antibodies using bio-layer interferometry analysis on a ForteBio Octet Red 96 instrument. Anti-human Fc biosensors (Pall ForteBio) were used to capture antibodies in the supernatants. Association to ROR1 was observed by real-time interferometry by placing the biosensors in wells containing recombinant human ROR1 extracellular domain protein. Dissociation was measured after transfer of the biosensors into wells containing 10× kinetics buffer (Pall ForteBio). The software provided by the manufacturer was used to analyze the interferometry data.
# Human ROR2 [12] = target: T6, Human ROR2; test: Octet
# [13] = target: T2, human ROR1 'Ig-Frizzled domain'; test: Octet
# [14] = target: T1, human ROR1 'Frizzled-Kringle domain'; test: Octet
# [15] = target: T4, mouse ROR1 (serum titer ELISA antigen); test: Octet
# Mouse ROR1-CHO = target: T7, Mouse ROR1-CHO (mouse, UniProt Q9Z139); test: FACS, mouse ROR1-CHO
# T7 construct: expressed on the surface of CHO cells; also called mouse ROR1 on CHO cells
# [16] = target: T3, recombinant human ROR1 extracellular …; test: Octet, bi-valent binding to human ROR1
# T3 sequence (Q01973 30-406): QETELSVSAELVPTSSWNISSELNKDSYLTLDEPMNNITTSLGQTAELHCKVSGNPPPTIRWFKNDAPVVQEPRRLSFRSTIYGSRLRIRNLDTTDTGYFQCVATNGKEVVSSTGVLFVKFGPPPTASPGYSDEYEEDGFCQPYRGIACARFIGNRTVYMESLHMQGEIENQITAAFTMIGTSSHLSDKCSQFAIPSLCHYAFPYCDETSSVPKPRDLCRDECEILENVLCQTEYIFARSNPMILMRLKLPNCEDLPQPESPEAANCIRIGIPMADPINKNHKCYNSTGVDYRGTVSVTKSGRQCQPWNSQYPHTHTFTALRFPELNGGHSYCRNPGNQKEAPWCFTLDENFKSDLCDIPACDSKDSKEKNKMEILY
# T1 sequence (Q01973 165-406 limits assumed): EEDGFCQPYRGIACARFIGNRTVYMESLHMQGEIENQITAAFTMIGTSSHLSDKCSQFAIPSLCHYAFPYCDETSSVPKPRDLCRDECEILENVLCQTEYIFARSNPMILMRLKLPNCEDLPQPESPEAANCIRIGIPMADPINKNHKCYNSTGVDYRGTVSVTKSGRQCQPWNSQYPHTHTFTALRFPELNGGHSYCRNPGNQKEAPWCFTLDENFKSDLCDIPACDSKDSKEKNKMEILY
# T2 sequence (Q01973 30-305 limits assumed): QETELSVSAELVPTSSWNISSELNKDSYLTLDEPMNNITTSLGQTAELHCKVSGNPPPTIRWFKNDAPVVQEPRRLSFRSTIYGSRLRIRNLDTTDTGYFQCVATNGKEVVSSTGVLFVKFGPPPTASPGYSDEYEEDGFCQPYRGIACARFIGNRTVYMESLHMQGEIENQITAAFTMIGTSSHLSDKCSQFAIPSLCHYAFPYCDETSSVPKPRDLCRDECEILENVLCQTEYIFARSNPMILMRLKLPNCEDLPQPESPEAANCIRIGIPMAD
# T6 sequence (Q01974 34-403 limits assumed): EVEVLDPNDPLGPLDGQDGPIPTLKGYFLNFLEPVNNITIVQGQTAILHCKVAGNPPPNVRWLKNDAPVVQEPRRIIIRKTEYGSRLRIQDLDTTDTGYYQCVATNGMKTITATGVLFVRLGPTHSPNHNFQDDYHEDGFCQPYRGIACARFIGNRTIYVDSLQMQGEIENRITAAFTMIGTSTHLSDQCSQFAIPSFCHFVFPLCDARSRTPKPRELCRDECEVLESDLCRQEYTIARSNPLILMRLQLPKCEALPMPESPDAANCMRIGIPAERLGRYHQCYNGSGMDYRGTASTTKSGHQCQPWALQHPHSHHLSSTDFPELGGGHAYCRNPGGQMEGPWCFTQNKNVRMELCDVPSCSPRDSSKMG
# T4 sequence (Q9Z139 30-403 limits assumed): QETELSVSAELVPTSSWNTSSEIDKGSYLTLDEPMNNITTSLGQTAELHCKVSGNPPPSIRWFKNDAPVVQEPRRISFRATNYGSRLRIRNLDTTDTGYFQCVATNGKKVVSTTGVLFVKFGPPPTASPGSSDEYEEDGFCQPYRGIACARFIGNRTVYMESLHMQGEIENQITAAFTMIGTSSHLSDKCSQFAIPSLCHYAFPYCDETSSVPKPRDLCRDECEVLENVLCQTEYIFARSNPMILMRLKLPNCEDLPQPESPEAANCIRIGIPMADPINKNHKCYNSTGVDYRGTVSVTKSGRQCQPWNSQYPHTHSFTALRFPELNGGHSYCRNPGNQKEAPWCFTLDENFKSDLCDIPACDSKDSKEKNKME
# T7 sequence (Q9Z139 30-937 limits assumed): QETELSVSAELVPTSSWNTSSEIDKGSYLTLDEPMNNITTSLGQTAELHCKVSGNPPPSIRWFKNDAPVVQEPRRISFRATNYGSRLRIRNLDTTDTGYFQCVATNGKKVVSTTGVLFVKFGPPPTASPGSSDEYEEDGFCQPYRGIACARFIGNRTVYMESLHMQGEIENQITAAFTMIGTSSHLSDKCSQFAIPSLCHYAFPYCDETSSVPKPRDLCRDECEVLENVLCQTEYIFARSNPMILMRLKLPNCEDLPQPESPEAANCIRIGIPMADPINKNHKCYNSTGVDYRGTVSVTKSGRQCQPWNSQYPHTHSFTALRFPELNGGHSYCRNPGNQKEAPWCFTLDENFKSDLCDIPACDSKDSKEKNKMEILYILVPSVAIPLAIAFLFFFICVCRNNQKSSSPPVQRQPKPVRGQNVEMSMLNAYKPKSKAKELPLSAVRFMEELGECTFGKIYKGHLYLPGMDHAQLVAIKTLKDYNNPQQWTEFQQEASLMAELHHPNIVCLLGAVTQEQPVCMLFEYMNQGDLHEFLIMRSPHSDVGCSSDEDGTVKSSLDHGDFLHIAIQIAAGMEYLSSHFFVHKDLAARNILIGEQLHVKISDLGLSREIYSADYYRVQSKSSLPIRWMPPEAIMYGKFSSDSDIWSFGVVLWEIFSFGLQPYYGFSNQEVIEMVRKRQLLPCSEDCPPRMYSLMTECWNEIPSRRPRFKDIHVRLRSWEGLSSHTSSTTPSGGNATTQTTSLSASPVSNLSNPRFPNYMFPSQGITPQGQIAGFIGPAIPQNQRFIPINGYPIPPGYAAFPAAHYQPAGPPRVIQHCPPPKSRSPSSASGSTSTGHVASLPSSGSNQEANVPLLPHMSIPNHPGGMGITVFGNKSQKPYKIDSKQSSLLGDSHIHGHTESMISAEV
# Sequence of Human ROR1-CHO cells (human) (Q01973 30-937 limits assumed): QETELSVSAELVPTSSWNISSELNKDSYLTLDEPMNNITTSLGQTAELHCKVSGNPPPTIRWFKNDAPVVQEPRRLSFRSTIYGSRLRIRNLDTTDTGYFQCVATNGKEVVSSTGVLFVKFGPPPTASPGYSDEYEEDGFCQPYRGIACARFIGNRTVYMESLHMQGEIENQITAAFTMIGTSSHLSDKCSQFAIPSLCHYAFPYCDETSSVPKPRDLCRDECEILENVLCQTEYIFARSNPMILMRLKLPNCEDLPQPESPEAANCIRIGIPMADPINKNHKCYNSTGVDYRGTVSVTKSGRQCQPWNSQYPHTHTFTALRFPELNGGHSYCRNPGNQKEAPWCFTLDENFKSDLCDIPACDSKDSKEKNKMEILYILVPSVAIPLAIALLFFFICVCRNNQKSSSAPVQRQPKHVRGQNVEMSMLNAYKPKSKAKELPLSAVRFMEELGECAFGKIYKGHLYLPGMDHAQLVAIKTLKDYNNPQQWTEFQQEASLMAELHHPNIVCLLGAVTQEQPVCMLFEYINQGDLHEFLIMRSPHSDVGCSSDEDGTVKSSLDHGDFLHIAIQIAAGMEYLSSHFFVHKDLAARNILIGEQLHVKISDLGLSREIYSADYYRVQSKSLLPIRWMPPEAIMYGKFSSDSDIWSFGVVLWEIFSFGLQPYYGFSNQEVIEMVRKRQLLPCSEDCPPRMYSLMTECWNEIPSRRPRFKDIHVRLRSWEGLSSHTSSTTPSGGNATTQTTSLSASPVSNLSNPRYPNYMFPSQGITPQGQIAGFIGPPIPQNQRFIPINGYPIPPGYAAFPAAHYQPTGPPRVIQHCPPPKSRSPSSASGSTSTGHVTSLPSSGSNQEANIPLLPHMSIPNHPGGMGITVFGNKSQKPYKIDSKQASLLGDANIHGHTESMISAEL
# Sequence of Human ROR2 (human) (Q01974 34-403 limits assumed): as the sequence (Q01974 34-403 limits assumed) above
# Sequence of recombinant human ROR1 extracellular domain protein (human) (Q01973 30-406): as the sequence (Q01973 30-406) above
# T5 sequence (Q01973 308-395 limits assumed): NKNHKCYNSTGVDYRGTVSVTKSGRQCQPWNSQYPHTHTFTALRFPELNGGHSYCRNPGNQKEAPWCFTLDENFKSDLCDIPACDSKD
ELISA OD450 [1],ELISA OD450 [2],FACS MFI [3],ELISA OD450 (Human ROR2 (human)),ELISA OD450 [4],ELISA OD450 [6],ELISA OD450 [7],koff [11],binding result (Human ROR2 [12]),binding result [14],binding result [15],binding result (Mouse ROR1-CHO),further results,Binder
0.17 OD450,2.23 OD450,20 MFI,0.23 OD450,0.32 OD450,4 OD450,1.94 OD450,,,,,,ELISA OD450 [5]: 2.32 OD450,"323D10 (antibody, V domains shown, chimeric counterpart m5; also called rabbit IgG of BCC well 323D10) VH: QSVEESGGRLVTPGTPLTLTCTVSGFSLSRNAMNWVRQAPGKGLEYIGYISTSGTTFYANWVKGRFTISKTSTTVDLKMTSLTTEDTATYFCARDYNYAMDIWGQGTLVTVSS VL: AIDLTQTPASVEAAVGGTITINCQASESISSWLAWYQQKPGQRPKLLIYETSKLASGVPPRFSGSGSGTQFTLTISGVQCDDAATYYCQSYYRINNIGYDNAFGGGTEVEFK"
0.1 OD450,0.62 OD450,25 MFI,0.21 OD450,0.18 OD450,2.17 OD450,1.29 OD450,,,,,,ELISA OD450 [8]: 0.48 OD450,"324E2 (antibody, V domains shown, chimeric counterpart m6; also called rabbit IgG of BCC well 324E2) VH: QSVEESGGRLVTPGTPLTLTCTVSGFSLSNNAITWVRQAPGKGLEYIGIISSSGTTYYASWAKGRFTISKTSSTTVDLKMTSLTTEDTATYFCAGAFSVWGPGTLVTVSS VL: AQVLTQTPSSVSAAVGGTVTINCQSSQSVNNNDLAWFQQKPGQPPKRLIYWASKLASGVPSRFKGSGSGTQFILTISDLECDDAATYYCAGGYSGNIYGFGGGTEVEVK"
,,,,,,,,,,,,ELISA OD450 [9]: 0.41 OD450; ELISA OD450 (Human ROR2 [10]): 0.09 OD450,"226E12 (antibody, V domains shown, chimeric counterpart m2; also called rabbit IgG of BCC well 226E12) VH: QSLEESGGRLVTPGTPLTLTCTASEFSLSNYYMSWVRQAPGEGLEWIGAINADSDNTWYPSWVKGRFTISKTSSTTVDLKITSPTIEDTATYFCARSVSNNFAEYNIWGPGTLVTVSS VL: AYDMTQTPSSVSAAVGGTVTIKCQASQRIYSYLAWYQQKPGQPPKLLIYRASTLASGVPSRFKGSGSGTEYTLTISDLECADAATYYCQQGASMVDVENMFGGGTEVVVK"
,,,,,,,1.26e-08 s⁻¹,no binding,,,,binding result [13]: no binding,"330F11 chimeric rabbit/human IgG antibody (antibody, V domains shown, Rabbit variable regions on human gamma-1 and human kappa constant domains) VH: QSVEESGGRLVTPGTPLTLTCTVSGFSLNNYWMSWVRQAPGEGLEWIGTISSGAYTWFATWATGRFTISKTSTTVDLSITSPTTEDTATYFCARYSSTTDWTYFNIWGPGTLVTVSS VL: DVVMTQTPASVEAAVGGTVTIKCQASQSINNYLAWYQQKPGQPPKLLIYRASTLESGVPSRFKGSGSGTQFTLTISDLECADAATYYCQSYNGVGRTAFGGGTEVEFKR"
,,,,,,,1.35e-08 s⁻¹,no binding,no binding,no binding,no binding,,"324C7 chimeric rabbit/human IgG antibody (antibody, V domains shown, Rabbit variable regions on human gamma-1 and human kappa constant domains) VH: QSVEESGGRLVTPGTPLTLTCTVSGFSLSGAGVSWVRQAPGKGLEWIGYIDSGATTYYASWAKGRFTISKASTTVDLKIASPTTEDTATYFCARGYYGMDPWGQGTLVTVSS VL: DIVMTQTPASVEVAVGGTVTIKCQASQNIGSDLAWYQQKPGQPPKLLIYTTSNLASGVPSRFKGSGSGTGFTLTISDLECADAASYCCQGGYFSGRNIYGNAFGGGTEVVVKR"
,,,,,,,2.08e-08 s⁻¹,no binding,no binding,no binding,no binding,koff [16]: 0.0062 s⁻¹,"323H7 chimeric rabbit/human IgG antibody (antibody, V domains shown, Rabbit variable regions on human gamma-1 and human kappa constant domains) VH: QEQLKESGGGLVTPGGTLTLTCTASGFTISRYHMTWVRQAPGKGLEWIGHIYVNNDDTDYASWAKGRFTISKTSTTVDLKITSPTTEDTATYFCARLDVGGGGAYIGDIWGQGTLVTVSS VL: QAVVTQTPSSVSAAVGGTVTISCQSSQSVYNNNDLAWYQQKPGQPPKLLIYYASTLASGVSSRFKGSGSGTQFTLAISDLECDDSATYYCAGGYDTDGLDTFAFGGGTEVEVKR"
